Experiment: label from the status in PepcDB records

| Sequence | protein production |
| --- | --- |
| MNMSTDRIERRIVLHAPRSRVWRALTNADEFGAWFRVDLAGQAFEAGRRVEGRITYPGYEHLVLQMRIERIEPEHHFSYRWHPAAVDPAVDYSQEAPTLVVFELADAEGGPLLTVVESGFDALPVERRADAFRMNSGGWDEQMTNIAAHVDAR | failed |
| MAGETPEQGEGRIISGRYRLLRTLGAGGMGRVWLAYDAELACEVAVKEIALPDLPIDASEPVQRIARARSEARNAARLRGHPHVATVHDVVVHEGLPWIVMEHVPDAIDLQAVVRRSGPLTPARTARIGVAVLDALTAGHRIGILHRDVKPANILLAPDASGDPYARVLLTDYGIALQPESREPRLTATAGILGTPGYLAPERARGEPPTPAADLFSLGATLYATVEGRGPFDRHGEYATLTALLGEEPTPPVRAGELGAVLHGLLIKDPVRRLAPEAVARGLEAVARAAPGEGFGPPPGWGSAPSVGQGFGPPPQGFGPPPDGFGPPSGTPSVSPPSAEGATTAPGAPGAPQVSAPGTPQTPGAPRTPHTPHTPQTPAGGPGTPPGSPSAYNPWRPTPPSGPYDPGNPYASSPSSPYAGTGAPAAYEGGPAYFPPRPSPRRKSAAALVALVVAAALVVTGGIWAALSLTGGPTGDGGGTTGQRAKKSPPVSGPQSTKPAGPVLPYGEQVGLTEPLQAGDCVRAVWSGAAFKSVPNLGVVDCADDWPDGQVVAVDTATDYADARDRGARRCAGQSQATADALPDAGVYAVAPTKEGFTAASGGTACLVLGRHAAIGGEVGRFRDTGTDLWVGQMSIGDCWIYKEEKDSYKAPLSDCAQPHTDQVIGAVSAPKNMDYKKGVDNGNKLCGNKFESSWAPGPARQVFGWVADKEDWNDGFDKVVCTVRRSDGAETSGKISAPGAV | failed |
| MTTKAVLISSGVATVALLLKLSVPVAVDFSVSRAPILWSSLLSWLKPPYLYVVTNGIIITIVASSKYYRSHHDRDEEDEIVVYGGGGYKIQTEEPIVNQHQASPRILEVKDLDTGAHFGFVVANLEAEELESEAVTAVVFDDEEEEKKIIDSAATAEDEIEEELKSVIMVENSDLVESDVIPPPMMIESENLPPIEKPLVTSRFGHRKLMKASQEGGRALRVTKPKKNETLENTWKMITEGKSTPLTRQLYRRSDTFGRGDSGGVDGEVKPVYKKSDTFRDRTNYYQLAETAKVRKEPSLSQEELNRRVEAFIKKFNEEMKLQRMESLRQYKEITSRGV | failed |
| MTGEEITAAIHQVLTERMNNRHLDGFGPQSRLNADLYLDSVLMLDLLLHLELDHGITAPEEAIATAAIQTVSDLVELLAGASPATSGASDTAVADGPDVHADVYPDIKVHCVVSCLCDAVKAAGLDHRPMYFGIWDADFAVSDKFELRYHTDHISHGFFCHWFHRLYGVRVTEWYDHSAGKQSNLARLIGLVDARRPTESVMVMLDMFHLPERENKFNQYPFPHYLMVEATPDPETWQVRDPDFRWEGPIAKERILNAVAQPSVGGGYIFDRCTMRLPAAVDIGDYFLACFVSDDNPLIRRLREIVDTHLGCRDGLRLQALGDAVRELPVLSIRKWAYEHGFAFFWRELRLPNDAFLTWCDRIEELALGLPALHLKILRLAQTEDRTCAADIHQTLDRLDALETAIKVKLHEVFVAWCSHQGLTRATPRERRVGAR | failed |
| MPFVAVATCLSPLIICYPQNRTMECDLLMIKIEKVINKNDLKAFIAFPSSLYPDDPNWIPPLFIERNEHLSAKNPGTDHIIWQAWVAKKAGQIVGRITAQIDTLHRERYGKDTGHFGMIDAIDDPQVFAALFGAAEAWLKSQGASKISGPFSLNINQESGLLIEGFDTPPCAMMPHGKPWYAAHIEQLGYHKGIDLLAWWMQRTDLTFSPALKKLMDQVRKKVTIRCINRQRFAEEMQILREIFNSGWQHNWGFVPFTEHEFATMGDQLKYLVPDDMIYIAEIDSAPCAFIVGLPNINEAIADLNGSLFPFGWAKLLWRLKVSGVRTARVPLMGVRDEYQFSRIGPVIALLLIEALRDPFARRKIDALEMSWILETNTGMNNMLERIGAEPYKRYRLYEKQI | failed |
| MPFSISGRKGSEMMAKLDELKQKLTAKQIQAAYLLVENELMESNNEEKRTQDEMANELGINRTTLWEWRTKNQDFIAFKSEVADSFLAEKREQVYSKLMQLILGPQPSVKAMQLYMQRFGLLTDKKVIEGDLGNATRTNAEIEEQLQKLKKLTGE | not failed |
| DDSSDPKTSKSATSSEASSAAEAAPAELPTAEELNAILAVATDPAAPVEQKVATVQGGETAPELFETMTASKQESGANFQ | failed |
| MEHPLIRIVILAVLAYVGYALLCFLVQRTIIYPGRSLSVAGQPPDLPDIHPLWLTTPYGHVESWFLPATGSVAGDRRPVVLFFHGNGEVIDVLPDQAEGFRRMGMHVMLVEYPGYGRSGGSPSEEGITAAAVAAYDELVRRSDTDSGRMIAFGRSLGCGAACALSLRRPLAALILQSPFTSTRPFARQMLLPGFLARDVFDNRKALESYGGAVLILHGTEDDIIPVGHGRELARTVRRGCLIELRCGHNDCPPDWLEFWRIIEGFLEQEGVSGRK | failed |
| MAIETAILEKIKQYQTIIIHRHQRPDPDCIGSQLALRAILRASFPEKTVVAVGKHYPGFDWMGQADQEVSDDTYHQALVIVVDTANQPRVDDERWQTGAAVIKIDHHPNDDAFGDLQWVLPQASSTSEIIYDWFEANHADLTMPDDAARLLYAGIVGDTGRFMYPATSANTFAVAGKLLAYDFSMTAVNQAEDEISPEMARLSAYAYQNLEILPSGAAYLKLTDEIVESFGLAASDSTSAIVPLPGKITSVVAWAIFVESKDKTFRVRLRSKGPSINELAKRHGGGGHALASGAAAKDQAEIDQVIHELDQLVADTKGENELEHHHHHH | not failed |
| TLEQLPSAQSTLVSLDANNGALRALVGGFSFTANKFNRATQARRQPGSSFKPFVYSAALEKGFNPASIVPDAPVIFRDRRGHTWSPQNDDGKFQGPMRIRDALVQSRNLVSVRLLDAIGIDFARNYITQFGFEENEIPPNLSMSLGTASLTPLSIARGYAVFANGGFRIDPWLIDEIHDREHKLIFKNNPKVACSSCTSANTNVTQSTSHLVDGFNFGAPTKTEPSKPVKNNNEPTQTIPSPDPNTPMAPRAIDERVVFQLVSMMRDVVLRGTATAARSLNRQDIAGKTGSTNEHRDAWFSGFGGPYVTTVWVGRDDFQSLGYREYGGKAALPIWIEYMRTALKDKPIARN | failed |
| RDKYYLITHGSQDPYWTSLFQGAKKAAEELKVDLQILAPPGANDVPKQVQFIESALATYPSGIATTIPSDTAFSKSLQRANKLNIPVIAVDTRPKDKTKNPYLVFLGSDNLLAGKKLGEKALELTPSAKRALVLNPQPGHIGLEKRAYGIKTILQDKGIFFEELDVGTDPNQVQSRVKSYFKIHPETNIIFCLTSQALDPLGQMLLHPDRYDFNYQPQVYSFDKTPNTVSLIHKKLVNYVMDQQPFLMGYLSITQLVLMNRYQLNPVNINTAM | not failed |
| MTEKHLIWDLPLRIFHWGFAATILAAWYTAEQGADLVEIHMQLGFVALALIAFRILWGLIGPKHARFSQFVPSPKSLLSYLRSPNTAKSTAGHNPLGALMVILMILLISAQAISGLFINDDVFSSGPYYGRISNELEKVMKFLHHNTFDFMIAAIVLHIAAITFYWRVKKENLVLPMITGKKTTAQVKSSDAIPHSKIILGCIVAVCCVIFVYWLVVVNAPVIEEFYY | failed |
| MRGRFFFRSFEATLIGSEFLVSPETPGTRFAKAPSFRSKTEKDLCSAHGAAASGVLPLGLLEELVRSSPRSSQASGPAGSRQPAQRAPGHQVPAAKMLELLVASLSLALAFFALLDGWYLVRVPCAVLRARLLQPRVRDLLAEQRYAGRVLPSDLDLLLHMNNARYLREADVARAAHLTRCGVLGALRDLNAHTVLAASCARYRRSLRLFEPFEVHTRLQGWDDRAFYLEARFVSLRDGFVCALLRFRQHVLGTSPDRVVQHLCKRRVEPPELPEDLKHWISYNETSSQLLRAESGLSDRKDQ | failed |
| MQLESLYQFLYSVVMSYLVSLKYVSFVLISVILVFRKIIRTVKGGRFRRYSIFIPPILYILFSIAVSYGTSLLGIVLSLIAFVFGIYISFHTTRSIVFFSKNNILYYKRPGWVVAIWSLAFLTRLALILFFPSFNGDLFTVLLFLASGLIIGESFWIVRKNREILSTVRMPKIHL | failed |
| MSYGLIIVLMIILGIGLWHTKKYHRAVVNQVAHVWITKNAFEHTALGMAIVSPDCRFLKVNRAYGEITGYTRPELLKMAVKELTHPEDQEKDTPYLQEVFAGNIHSFTTVKRYIHKNGSTIWVRSTISAVRTERGNLEHHHHHH | not failed |
| MRVTWEEAGWESVAPFVGRRRLPGWDCTVGLVIGDSAALMIDAGSSLREGALLRAEAQRLLGPGRRVTHLALTHPHFDHVFGAAAFSGVEVFGAVGLDTALAHGREELRADAVRNGLDPRAAEGAADLLVRPRHHVFGEWTLDLGGEVQVLLANVGPGHTAYDLAVLVSSSPEVVFCGDLVEESGEPQAGPDAIPSHWPAALDRLLDLGGQDAVYVPGHGATVDAAFVRTQRDELAARFGIA | failed |
| RSEIVRLNSLMNDILNNIPVYLFVKDTGNDFRYLYWNKAFAEHSGISVQRAVGSTDADIFPDKKDAEHFREDDLKVMKLGRIEYLENYTTMSGEVRTVTTMKTVVPSGGQHPYIIGVSWDVT | failed |
| YSIALIIPSLFEKACAHFLPSFQQALNKAGYQLLLGYSDYSIEQEEKLLSTFLESRPAGVVLFGSEHSQRTHQLLEASNTPVLEIAELSSKASYLNIGVDHFEVGKACTRHLIEQGFKNVGFIGARGNHSTLQRQLHGWQSAMIENYLTPDHFLTTHEAPSSQLGAEGLAKLLLRDSSLNALVCSHEEIAIGALFECHRRVLKVPTDIAIICLEGSSMGEHAYPSLTSAEFDYERMGTKAAEKLLHAIKGEPEERPTSMGFKLKRRASTAIN | not failed |
| MKQKLVVMIAAVLILALTVSIASAEDQNDQTSLRSEQNDAFVAGDNLIDSSSVIKYGDPIGSYKNVTAYSNKGNGKYQCVEYVKRFYKEAMNVEPDWDGTGNAITYYTNAEAKGLVSYSNNGSVAPKPDDIIIFSPTDNGYGHVAIITEVGDKYIKIIEQNWNQENAFASLSLEKNGSKYYISPRGASKRPTEGWCRTPILNIISPTKKSFSLVGNYNNPNLLTVDAEVKSENVPITGLNKDNFTIEIGSKKVNDVTVSDVGEGKYKLSFNPPKQDSNGNYDLNVYVKYKKVTLSDSELNAVRYGEDNANANANVMLVIDRSGSMSGSPISSAKNSANLFIDYMEAEDMAGVVSFSSSARYDYHLATLTPEVKNSIKQKINSIYASGVTAIGSGMRYGLNDLLNYGDPNNPWAIVLLSDGYQNSGENPNNVIPSIKASNIQVYTVGLGPAVDQKLLGNIADQTGGKYYYSPTDSQLQEIYNDIVGKIIGWKTVFKRNVKMFIHERVPIAVPIDSAIDKVSFGIGWPGSNVDLVLYKPDGTLVDPSFADSDPTIEYLSGPTYKIYKVTDPESGMWNMELNATDMPAGGEDVYVTVLAESTLSMSLSTNKGQYNQGEVVKIIADLSDAGTQITGADVKVNVTLPDSSVEYLTLYDDGGHGDNGSQDGVYANYLVDTSLMGDYKVDVTSTGSLSDGSQFKRIEDTSFEIIQGISSISSIANLQSTNDITWINWTWTNPTGPNFSHTEIYLDGVFQANTSAEFFNATGLEPETEYTLSTHTVDISGNVNETWVNSTATTSAELVSDVKKPVIDSVNLFPANTTAGATINLSINATDDTAVTEVIAGDIQLIKTDDIWQGSITAPSSIGSYSLLIKAKDAAGNVAEASVPYRVVQLSGGANIAVSPRSSSIVAGNSVTLNIKVKNTQNIDDIFKVNITVSELPAANQANIDWFSWTEQSVKLRAGEEILLPLEVEVPDGTALGLKLFRANVNSETSVVTGFDTGYLKVV | failed |
| MKFCSQCGGEVILRIPEGDTLPRYICPKCHTIHYQNPKVIVGCIPEWENKVLLCKRAIAPYRGKWTLPAGFMENNETLVQGAARETLEEANARVEIRELYAVYSLPHISQVYMLFRAKLLDLDFFPGIESLEVRLFGEQEIPWNDIAFRVIHDPLKRYMEERHHGQPAFHLGIINKPQAGSNSNE | not failed |
| PNVVKMNKPFISLCPEITRAHALTLMDWLEDEHVTRHLSDSRHVSRFIEQVIDRVQLPVLTHLFNQGGRFFMAYDRHDVPVGFVRLVKTGSDCEIVLVIGNRDNWGRKLGASAIREGMKLAFFEMRAARLIAKVHPDNERSLNAFLRCGFVLE | not failed |

From a protein production outcome set (Wang et al. 2014)
